Patent US20220380455A1 (Alector, published 2022)
“And” between values parts separate entries of the source, which are not always exact repeats. Equal entries are not always repeated.

T1: BSA-MS4A6A-ECL2 peptide (human, BSA-conjugated)
T1 construct: Synthetic peptide derived from ECL2, conjugated to BSA, coated on the ELISA plate; also called MS4A6A-ECL2 BSA conjugated peptide; BSA-MS4A6A-ELC2 peptide
T1 peptide: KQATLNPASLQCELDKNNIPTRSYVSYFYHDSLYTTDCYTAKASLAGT

T2: MS4A6A ECL1 peptide (human)
T2 construct: the description elsewhere gives ECL1 as 68-84; Human and cyno ECL1 are said to be identical
T2 peptide: SASFSPNFTQVTSTLLNS

T3: cynomolgus (cyno) MS4A6A (cynomolgus, UniProt Q9H2W1 1-246 (human entry))
T3 construct: Full-length protein expressed in transfected HEK293, U937 or K562 cells (flow cytometry)
T3 chain: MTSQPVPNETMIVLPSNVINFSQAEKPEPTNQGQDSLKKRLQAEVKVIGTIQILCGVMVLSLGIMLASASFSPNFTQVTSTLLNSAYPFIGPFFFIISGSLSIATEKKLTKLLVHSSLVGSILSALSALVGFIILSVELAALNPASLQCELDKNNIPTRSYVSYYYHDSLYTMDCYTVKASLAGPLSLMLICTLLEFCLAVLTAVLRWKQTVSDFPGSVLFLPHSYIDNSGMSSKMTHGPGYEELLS

T4: MS4A6A ECL2 peptide (human)
T4 construct: also called MS4A6A ECL-2 peptides
T4 peptide: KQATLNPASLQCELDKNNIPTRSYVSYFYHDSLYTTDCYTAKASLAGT


Tests used:
[1] = target: T1, BSA-MS4A6A-ECL2 peptide; assay: peptide ELISA, hybridoma supernatant
Method: (§1) Anti-MS4A6A hybridoma supernatants were tested for binding to MS4A6A peptides derived from ECL1 (amino acid residues 68-85 of human MS4A6A of SEQ ID NO:1) and ECL2 (amino acid residues 138-185 of human MS4A6A of SEQ ID NO:1) sequences, using an enzyme-linked immunosorbent assay (ELISA). Briefly, 96-well polystyrene plates were coated with 1-10 μg/mL of synthetic free or BSA-conjugated peptides in coating buffer (0.05M carbonate buffer, pH9.6, Millipore Sigma C3041) overnight at 4° C. Coated plates were then blocked with ELISA diluent (PBS+0.5% BSA+0.05% Tween20) for 1-hour, washed 3×300 μL in PBST (PBS+0.05% Tween20, Thermo 28352), and then the antibodies were added at various dilutions (100-1000×) in ELISA diluent. After 30 mins incubation (room temperature, with shaking), the plates were washed 3×300 μl in PBST. A secondary anti-mouse HRP antibody (Jackson Immunoresearch CAT #115-035-003) was added at a 1:1000 dilution in ELISA diluent (50 μL/well) and incubated for 30 minutes at room temperature with shaking. After a final set of washes (3×300 μl in PBST), 50 μL of TMB substrate (BioFx TMBW-1000-01) was added and the reaction was then quenched after 5-10 mins with 50 μL of stop solution (BioFx BSTP-1000-01). The quenched reaction wells were detected for absorbance at […] with a BioTek Synergy Microplate Reader using GENS 2.04 software.

[2] = target: T2, MS4A6A ECL1 peptide; assay: peptide ELISA, hybridoma supernatant
Method: as §1

[3] = target: T3, cynomolgus (cyno) MS4A6A; assay: flow cytometry, hybridoma supernatant, HEK293 transfected with cyno MS4A6A over parental HEK293; Screen 2
Method: (§2) Positive clones were expanded and then rescreened for specificity against HEK293 cells overexpressing cyno MS4A6A and parental HEK293 cells. Briefly, previously prepared, cryopreserved transiently-transfected cells were labeled with LIVE/DEAD Fixable Aqua Dead Cell Stain Kit (ThermoFisher Scientific L34957) on ice for 30 minutes. After a wash with PBS, 2×10⁵ cells were aliquoted per well in 96-well round bottom plates and incubated with 50 μl of culture supernatant on ice for 30 mins. […] Following this secondary incubation, the cells were again washed twice with ice-cold FACS buffer and resuspended in a final volume of 200 μl of FACS buffer. Analysis was performed on a FACS Canto system (BD Biosciences), with sort gates drawn to exclude dead (Aqua-positive) cells. […] The screen was repeated twice, and the numbers reported here represent the ratio of mean fluorescence level in transfected cells over parental cells.

[4] = target: T3, cynomolgus (cyno) MS4A6A; assay: flow cytometry, hybridoma supernatant, HEK293 transfected with cyno MS4A6A over parental HEK293; Screen 1
Method: as §2

[5] = target: T4, MS4A6A ECL2 peptide; assay: array SPR (Carterra MX-96), antibody captured, peptide injected; both duplicates N/A
Method: (§3) Binding kinetic characterization of the purified antibodies to MS4A6A ECL1 and ECL2 peptides was performed by Carterra (South San Francisco, Calif.) using a proprietary array Surface Plasmon Resonance (SPR) instrument (MX-96) as follows. Antibodies were printed onto a CMD5OOD chip (Xantec #SPMX CMD500D lot #SC CMD500D0117.a Exp. 31.12.18) using the Continuous Flow Microspotter (CFM). First, the chip was activated with 100 mM MES pH 5.5, 100 μL EDC (133 mM final), 100 μL of S-NHS (33.3 mM final), for 7 minutes. A lawn of anti-mouse IgG-Fc (Jackson ImmunoResearch CAT #115-005-071 lot#130410) was injected for 15 minutes to establish a surface density of 10000-12000 RU, after which the chip surface was deactivated with 1 M ethanolamine at pH 8.5 for 10 minutes. Anti-MS4A6A antibodies in question, in the form of hybridoma supernatants diluted 2:1 with HBS-EP+buffer (Teknova CAT #H8022), were then printed as duplicates with a 20 minute and a 5 minutes print from the same sample solution. Control antibodies were diluted to 20 μ/ml for printing.
(§4) To perform kinetic analysis, the peptides in question were prepared in HBS-EP+buffer with lmg/ml BSA at final assay concentrations of 2000 nM, 400 nM, 80 nM, 16 nmM, and 3.2 nM. These were then injected on the chip for five minutes, followed by a seven-minute dissociation period at 8 uL per second in a non-regenerative kinetic series. Duplicate measurements for each anti-MS4A6A antibody were taken to ensure reproducibility.
(§5) Kₐ (association rate constant; Kₒₙ), Kd (dissociation rate constant; Koff) and KD (equilibrium constant) to MS4A6A ECL-2 peptides were calculated for each of the 23 anti-MS4A6A antibodies tested, the results of which are shown below in Table 5 (clones that bound too weakly to determine these values are denoted as N/A in Table 5).

[6] = target: T4, MS4A6A ECL2 peptide; assay: array SPR (Carterra MX-96), antibody captured on anti-mouse IgG-Fc, ECL2 peptide injected
Method: as §3, §4, §5

[7] = target: T2, MS4A6A ECL1 peptide; assay: array SPR (Carterra MX-96), antibody captured, peptide injected
Method: as §3, §4, §5

| binding result [1] | binding result [2] | ratio of APC MFI on MS4A6A+/HEK parental cells [3] | ratio of APC MFI on MS4A6A+/HEK parental cells [4] | binding result [5] | Kd [6] | koff [6] | kon [6] | binding result [7] | Binder |
| --- | --- | --- | --- | --- | --- | --- | --- | --- | --- |
| no binding | no binding | 178 ratio | 19.3 ratio | no binding (tested: 2000 nM) |  |  |  |  | 6A-17 (antibody, V domains shown, Mouse hybridoma antibody, tested as hybridoma supernatant (mouse IgG, detected or captured via anti-mouse IgG Fc); also called anti-MS4A6A antibody 6A-17) VH: QVQLKESGPGLVAPSQSLSITCTISGFSLTSYGVHWVRQPPGKGLEWLVVIWSDGSTTYNSALKSRLSISKDNSKSQVFLKMNGLQTDDTAMYYCARHRGNYPYYTMDYWGQGTSVTVSS VL: DIQMTQTTSSLSASLGDRVTISCRASQDISNYLNWYQQKPDGTVKLLIYYTSVLHSGVPSRFSGSGSGTDYSLTISNLEQEDIATYFCQQGNTLPWTFGGGTKLEIK |
| binds | no binding | 62.1 ratio | 13.5 ratio |  |  |  |  |  | 6A-6 (antibody, V domains shown, Mouse hybridoma antibody, tested as hybridoma supernatant (mouse IgG, detected or captured via anti-mouse IgG Fc); also called anti-MS4A6A antibody 6A-6) VH: QIQLVQSGPELKKPGESVKISCKASGYTFANYGMNWVKLAPGKGLKWMGYINIYSGKSRYADDFKGRFAFSLETSASTAYLQINNLKNEDMATYFCARDNDYFDYWGQGTTLTVSS VL: DIVLTQSPATLSVTPGDTVSLSCRASQSISDNLHWYQQKSHESPGLLIKYASQSISGIPSRFSGRGSGTDFTLSINSVDSEDFGVYFCQQSNSWPYTFGGGTKLEIK |
| no binding | no binding | 8.3 ratio | 3.6 ratio | no binding (tested: 2000 nM) |  |  |  |  | 6A-7 (antibody, V domains shown, Mouse hybridoma antibody, tested as hybridoma supernatant (mouse IgG, detected or captured via anti-mouse IgG Fc); also called anti-MS4A6A antibody 6A-7) VH: QVQLQQSGAELARPGASVKMSCKASGYTFTSYAMHWVKQRPGQGLEWIGYINPSSGYTYYNQKFKDKATLTADKSSSTAYMQLSSLTSEDSAVYYCARSYYGNYEGYLDVWGAGTTVTVSS VL: NIVLTQSPASLAVSLGQRATISCRASESVESYGKSFIHWYQQKPGQPPKLLIFLASNLESGVPARFSGSGSRTDFTLTIDPVEADDAATYYCQQNNVGPYTFGGGTKLEIK |
|  | no binding | 82 ratio | 156 ratio |  | 120 nM and 150 nM | 0.00065 s⁻¹ and 0.0008 s⁻¹ | 5400 M⁻¹ s⁻¹ and 5500 M⁻¹ s⁻¹ |  | 6A-23 (antibody, V domains shown, Mouse hybridoma antibody, tested as hybridoma supernatant (mouse IgG, detected or captured via anti-mouse IgG Fc); also called anti-MS4A6A antibody 6A-23) VH: EVNLEESGGDLVQPGGSMKLSCLASGFTFSDAWMDWVRQSPEKGLEWVAEIKNKANNYVTFYAASVKGRFTISRDDSKSSVYLQMNSLRLEDTGIYFCTRGSVYGNWFPYWGQGTLVTVSA VL: DIVMSQSPSSLAVSAGEKVTMTCKSSQSLFNSRTRKNYLTWYQQKPGQSPKVLIYWASTRESGVPDRFTGSGSGTDFSLTINSVQADDLAVYYCKQSYNLLTFGAGTKLELK |
|  | no binding | 95.2 ratio | 18 ratio |  | 190 nM | 0.0013 s⁻¹ | 6600 M⁻¹ s⁻¹ |  | 6A-10 (antibody, V domains shown, Mouse hybridoma antibody, tested as hybridoma supernatant (mouse IgG, detected or captured via anti-mouse IgG Fc); also called anti-MS4A6A antibody 6A-10) VH: QIQLVQSGPELKKPGETVKISCKASGYTFTNYGMNWVKQAPGKGLKWMGWINTYTGEPTYADDFKGRFAFSLETSASTAYLQINNLKNEDMATYFCARAYGNSAWFAYWGQGTLVTVSA VL: QIVLSQSPAILSASPGEKVTMTCRASSSVSYMHWYQQKPGSSPKPWIYATSNLASGVPARFSGSGSGTSYSLTISRVEAEDAATYYCQQWSSNPWTFGGGTKLEIK |
|  |  | 63.7 ratio | 24.1 ratio |  | 120 nM and 94 nM | 0.0006 s⁻¹ and 0.00065 s⁻¹ | 4800 M⁻¹ s⁻¹ and 6800 M⁻¹ s⁻¹ | no binding (tested: 2000 nM) | 6A-3 (antibody, V domains shown, Mouse hybridoma antibody, tested as hybridoma supernatant (mouse IgG, detected or captured via anti-mouse IgG Fc); also called anti-MS4A6A antibody 6A-3) VH: EVQLQQSGPELVKPGASVKMSCKASGYTFTDYFMKWVKQSHGKSLEWIGDINPKNGDTFYNQKFKGKATLTVDKSSSTAYMQLNSLTSEDSAVYYCARPGYFDVWGAGTTVTVSS VL: not shown |
| no binding | no binding |  |  | no binding (tested: 2000 nM) |  |  |  |  | 6A-20 (antibody, V domains shown, Mouse hybridoma antibody (SJL mouse), tested as hybridoma supernatant (mouse IgG, detected or captured via anti-mouse IgG Fc); also called anti-MS4A6A antibody 6A-20) VH: EVQLQQSGPELVKPGASVKMSCKASGYTFTDYFMKWVKQSHGKSLEWIGDINPKNGDTFYNQKFKGKATLTVDKSSSTAYMQLNSLTSEDSAVYYCARPGYFDVWGAGTTVTVSS VL: DIVMTQAAPSVPVTPGESVSISCRSSKSLLHSDGNTYLYWFLQRPGQSPQLLIYRMSNLAPGVPDRFSGSGSGTAFTLRISRVEAEDVGVYYCMQHLEFPFIFGAGTKLELK |
| no binding | no binding | 16.2 ratio | 5.4 ratio | no binding (tested: 2000 nM) |  |  |  |  | 6A-4 (antibody, V domains shown, Mouse hybridoma antibody, tested as hybridoma supernatant (mouse IgG, detected or captured via anti-mouse IgG Fc); also called anti-MS4A6A antibody 6A-4) VH: EVQLQQSGPELVKPGASVKISCKASGYSFTGYYMHWVKQSPEDSLEWIGAINPSTGGSTYSQKFKDKATLTVDKSSSTAYMQLKSLTSEESAVYYCTRFDGYGYWGQGTLVTVSA VL: DIVMTQAAFSNPVTLGTSASISCRSSKSLLHSNGITYLYWYLQKPGQSLQLLIYQMSNLASGVPDRFSGSGSGTDFTLRISRVEAEDVGVYYCAQNLELPWTFGGGTKLEIK |
|  |  | 75.5 ratio | 25.7 ratio |  | 200 nM and 120 nM | 0.001 s⁻¹ and 0.00098 s⁻¹ | 5300 M⁻¹ s⁻¹ and 8300 M⁻¹ s⁻¹ | no binding (tested: 2000 nM) | 6A-2 (antibody, V domains shown, Mouse hybridoma antibody, tested as hybridoma supernatant (mouse IgG, detected or captured via anti-mouse IgG Fc); also called anti-MS4A6A antibody 6A-2) VH: DVQLQESGPGLVKPSQSLSLTCSVTGYSITSGYYWNWIRQFPGNKLEWLGYITYDGDTDYNPSLKNRVSITRDTSKNQFFLNLISVTPEDTATYYCAREDSFGYWGQGTLVTVSA VL: not shown |
|  | no binding | 69.5 ratio | 26.7 ratio |  | 170 nM | 0.001 s⁻¹ | 6300 M⁻¹ s⁻¹ |  | 6A-8 (antibody, V domains shown, Mouse hybridoma antibody, tested as hybridoma supernatant (mouse IgG, detected or captured via anti-mouse IgG Fc); also called anti-MS4A6A antibody 6A-8) VH: QVQLQQSGAELARPGTSVKLSCKASGYTFTDYYINWVKQRNGQGLEWIGEIYPRSGNAYYNEKFRGKATLTTDKSSSTAYMQLSGLTSEDSAVYFCARGDGNWYFDVWGAGTTVIVSS VL: DIVMTQSPSSLSVSAGEKVTMSCKSSQSLLNSGDQENYLVWYQQKPGQPPKLLIYGASTRESGVPDRFTGSGSGTDFTLTISSVLAEDLAVYYCQSDHSYPLTFGAGTKLELK |
